This data set deals with the molecule itself. Briefly: static small angle X-ray scattering (SAXS); conventional static SAXS, flow cell, no laser (ground state); difference scattering between wild type and monomeric mutant; 25 mM Tris pH 7.5, 100 mM NaCl, 2 mM DTT.

B1: Arabidopsis thaliana UV-B resistance 8 (AtUVR8), wild type, residues 12-381 (domain or fragment, UniProt Q9FN03 12-381, looked up)
chain: APPRKVLIISAGASHSVALLSGDIVCSWGRGEDGQLGHGDAEDRPSPTQLSALDGHQIVSVTCGADHTVAYSQSGMEVYSWGWGDFGRLGHGNSSDLFTPLPIKALHGIRIKQIACGDSHCLAVTMEGEVQSWGRNQNGQLGLGDTEDSLVPQKIQAFEGIRIKMVAAGAEHTAAVTEDGDLYGWGWGRYGNLGLGDRTDRLVPERVTSTGGEKMSMVACGWRHTISVSYSGALYTYGWSKYGQLGHGDLEDHLIPHKLEALSNSFISQISGGWRHTMALTSDGKLYGWGWNKFGQVGVGNNLDQCSPVQVRFPDDQKVVQVSCGWRHTLAVTERNNVFAWGRGTNGQLGIGESVDRNFPKIIEALSVDG
notes: UV-B resistance 8 (UVR8), Arabidopsis thaliana, residues 12-381; Homodimer in the dark (ground) state; also called 2M-T-AtUVR8-His; source: E. coli BL21(DE3) GOLD, purified (IMAC, TEV cleavage, Q-Sepharose, MBPTrap flow-through); not shown: MBP-His-tag, N-terminal, cleaved
Consider B1, for which the binding result is “binds”.

Source of the values: paper PMC11282289, “Serial X-ray liquidography: multi-dimensional assay framework for exploring biomolecular structural dynamics with microgram quantities” (Nature Communications, 2024).
